Data reported in patent US20210380703A1.

molecular target: Human Fc (human); test: ELISA; negative control

optical density [OD] | Binder
0.284 | 376_F06 (antibody, V domains shown) VH: EVQLLESGGGLVQPGGSLRLSCAASGFTFSSYGMNWVRQAPGKGLEWVSGINYNGGYTGYADSVKGRFTISRDNSKNTLYLQMNSLRAEDTAVYYCARGANWHDTHLDYWGQGTLVTVSS VL: DIQMTQSPSSLSASVGDRVTITCRASQSILTYVNWYQQKPGKAPKLVIYAATSRASGVPSRFSGSGSGTDFTLTISSLQPEDFATYYCQQSYETPLTFGGGTKVEIK
0.252 | 376_G05 (antibody, V domains shown) VH: EVQLLESGGGLVQPGGSLRLSCAASGFTFSSYSMNWVRQAPGKGLEWVAGINYNGGYTSYADSVKGRFTISRDNSKNTLYLQMNSLRAEDTAVYYCARGANWHDTALDYWGQGTLVTVSS VL: DIQMTQSPSSLSASVGDRVTITCRASQSIISYVNWYQQKPGKAPKLVIYAATSRASGVPSRFSGSGSGTDFTLTISSLQPEDFATYYCQQSYESPLTFGGGTKVEIK
0.321 | 376_G10 (antibody, V domains shown) VH: EVQLLESGGGLVQPGGSLRLSCAASGFTFDSYGMNWVRQAPGKGLEWVAGINYNGGYTSYADSVKGRFTISRDNSKNTLYLQMNSLRAEDTAVYYCARGANWHDTALDYWGQGTLVTVSS VL: DIQMTQSPSSLSASVGDRVTITCRASQSILSYVNWYQQKPGKAPKLLIYAATSRASGVPSRFSGSGSGTDFTLTISSLQPEDFATYYCQQSYESPLTFGGGTKVEIK
0.34 | 376_H04 (antibody, V domains shown) VH: EVQLLESGGGLVQPGGSLRLSCAASGFTFSSYSMNWVRQAPGKGLEWVAGINYNGGYKGYADSVKGRFTISRDNSKNTLYLQMNSLRAEDTAVYYCARGANWHDTALDYWGQGTLVTVSS VL: DIQMTQSPSSLSASVGDRVTITCRASQSILTYVNWYQQKPGKAPKLVIYAATSRASGVPSRFSGSGSGTDFTLTISSLQPEDFATYYCQQSYDLPLTFGGGTKVEIK
0.325 | 376_H11 (antibody, V domains shown) VH: EVQLLESGGGLVQPGGSLRLSCAASGFTFDSYSMNWVRQAPGKGLEWVSNINYNGGYTGYADSVKGRFTISRDNSKNTLYLQMNSLRAEDTAVYYCARGANWHDTALDYWGQGTLVTVSS VL: DIQMTQSPSSLSASVGDRVTITCRASQSISRYLNWYQQKPGKAPKLLIYAVTSLASGVPSRFSGSGSGTDFTLTISSLQPEDFATYYCQQSYESPLTFGGGTKVEIK
0.267 | 376_G06 (antibody, V domains shown) VH: EVQLLESGGGLVQPGGSLRLSCAASGFTFSSYGMNWVRQAPGKGLEWVAGINYNGGYTGYADSVKGRFTISRDNSKNTLYLQMNSLRAEDTAVYYCARGANWHDTHLDYWGQGTLVTVSS VL: DIQMTQSPSSLSASVGDRVTITCRASQSIVSYVNWYQQKPGKAPKLVIYAATSRASGVPSRFSGSGSGTDFTLTISSLQPEDFATYYCQQSYNSPLTFGGGTKVEIK

molecular target: Human Fc (human); test: ELISA, negative control

optical density [OD] | Binder
0.2 | 373_G10 (antibody, V domains shown) VH: EVQLLESGGGLVQPGGSLRLSCAASGFTFSDYGMNWVRQAPGKGLEWVSNINYNGGYKSYADSVKGRFTISRDNSKNTLYLQMNSLRAEDTAVYYCARSANWHDTALDYWGQGTLVTVSS VL: DIQMTQSPSSLSASVGDRVTITCRASQSIVSYVNWYQQKPGKAPKLLIYAATSRASGVPSRFSGSGSGTDFTLTISSLQPEDFATYYCQQSYDLPLTFGGGTKVEIK
0.17 | 373_E12 (antibody, V domains shown) VH: EVQLLESGGGLVQPGGSLRLSCAASGFTFSSYSMNWVRQAPGKGLEWVANINYNGGYTGYADSVKGRFTISRDNSKNTLYLQMNSLRAEDTAVYYCARSANWHDTALDYWGQGTLVTVSS VL: DIQMTQSPSSLSASVGDRVTITCRASQSILSYVNWYQQKPGKAPKLVIYAATSRASGVPSRFSGSGSGTDFTLTISSLQPEDFATYYCQQSYDTPLTFGGGTKVEIK
0.201 | 374_D08 (antibody, V domains shown) VH: EVQLLESGGGLVQPGGSLRLSCAASGFTFDSYGMNWVRQAPGKGLEWVSGINYNSGYTGYADSVKGRFTISRDNSKNTLYLQMNSLRAEDTAVYYCARSANWHDTHLDYWGQGTLVTVSS VL: DIQMTQSPSSLSASVGDRVTITCRASQSILTYLNWYQQKPGKAPKLLIYAATSRHSGVPSRFSGSGSGTDFTLTISSLQPEDFATYYCQQSYESPLTFGGGTKVEIK
0.201 | 373_H05 (antibody, V domains shown) VH: EVQLLESGGGLVQPGGSLRLSCAASGFTFSDYSMNWVRQAPGKGLEWVANINYNGGYKGYADSVKGRFTISRDNSKNTLYLQMNSLRAEDTAVYYCARSANWHDTALDYWGQGTLVTVSS VL: DIQMTQSPSSLSASVGDRVTITCRASQSILTYVNWYQQKPGKAPKLVIYAATSRASGVPSRFSGSGSGTDFTLTISSLQPEDFATYYCQQSYETPLTFGGGTKVEIK
0.222 | 374_B04 (antibody, V domains shown) VH: EVQLLESGGGLVQPGGSLRLSCAASGFTFSSYSMNWVRQAPGKGLEWVSNINYNSGYTGYADSVKGRFTISRDNSKNTLYLQMNSLRAEDTAVYYCARSANWHDTALDYWGQGTLVTVSS VL: DIQMTQSPSSLSASVGDRVTITCRASQSIVSYLNWYQQKPGKAPKLLIYAVTSRASGVPSRFSGSGSGTDFTLTISSLQPEDFATYYCQQSYESPLTFGGGTKVEIK
0.16 | 373_E01 (antibody, V domains shown) VH: EVQLLESGGGLVQPGGSLRLSCAASGFTFSSYGMNWVRQAPGKGLEWVSGINYNGGYKGYADSVKGRFTISRDNSKNTLYLQMNSLRAEDTAVYYCARSANWHDTALDYWGQGTLVTVSS VL: DIQMTQSPSSLSASVGDRVTITCRASQSIVSYVNWYQQKPGKAPKLLIYAATSRHSGVPSRFSGSGSGTDFTLTISSLQPEDFATYYCQQSYNNPLTFGGGTKVEIK
0.206 | 374_A07 (antibody, V domains shown) VH: EVQLLESGGGLVQPGGSLRLSCAASGFTFSSYSMNWVRQAPGKGLEWVSGINYNSGYKGYADSVKGRFTISRDNSKNTLYLQMNSLRAEDTAVYYCARSANWHDTALDYWGQGTLVTVSS VL: DIQMTQSPSSLSASVGDRVTITCRASQSILSYVNWYQQKPGKAPKLLIYAVTSRASGVPSRFSGSGSGTDFTLTISSLQPEDFATYYCQQSYDLPLTFGGGTKVEIK
0.18 | 374_C06 (antibody, V domains shown) VH: EVQLLESGGGLVQPGGSLRLSCAASGFTFDDYSMNWVRQAPGKGLEWVSSINYNSGYKGYADSVKGRFTISRDNSKNTLYLQMNSLRAEDTAVYYCARSANWHDTALDYWGQGTLVTVSS VL: DIQMTQSPSSLSASVGDRVTITCRASQSILTYVNWYQQKPGKAPKLLIYAATSRASGVPSRFSGSGSGTDFTLTISSLQPEDFATYYCQQSYNSPLTFGGGTKVEIK
0.198 | 373_H01 (antibody, V domains shown) VH: EVQLLESGGGLVQPGGSLRLSCAASGFTFDSYSMNWVRQAPGKGLEWVANINYNGGYTGYADSVKGRFTISRDNSKNTLYLQMNSLRAEDTAVYYCARSANWHDTALDYWGQGTLVTVSS VL: DIQMTQSPSSLSASVGDRVTITCRASQSILSYLNWYQQKPGKAPKLVIYAATSRASGVPSRFSGSGSGTDFTLTISSLQPEDFATYYCQQSYDNPLTFGGGTKVEIK
0.189 | 373_D10 (antibody, V domains shown) VH: EVQLLESGGGLVQPGGSLRLSCAASGFTFDSYSMNWVRQAPGKGLEWVSNINYNSGYKGYADSVKGRFTISRDNSKNTLYLQMNSLRAEDTAVYYCARSANWHDTALDYWGQGTLVTVSS VL: DIQMTQSPSSLSASVGDRVTITCRASQSILSYVNWYQQKPGKAPKLLIYAATSRASGVPSRFSGSGSGTDFTLTISSLQPEDFATYYCQQSYDLPLTFGGGTKVEIK
0.257 | 374_B12 (antibody, V domains shown) VH: EVQLLESGGGLVQPGGSLRLSCAASGFTFDSYSMNWVRQAPGKGLEWVAGINYNGGYTGYADSVKGRFTISRDNSKNTLYLQMNSLRAEDTAVYYCARSANWHDTHLDYWGQGTLVTVSS VL: DIQMTQSPSSLSASVGDRVTITCRASQSISSYLNWYQQKPGKAPKLVIYAATSRASGVPSRFSGSGSGTDFTLTISSLQPEDFATYYCQQSYDNPLTFGGGTKVEIK
0.157 | 374_B06 (antibody, V domains shown) VH: EVQLLESGGGLVQPGGSLRLSCAASGFTFDSYSMNWVRQAPGKGLEWVAGINYNSGYKGYADSVKGRFTISRDNSKNTLYLQMNSLRAEDTAVYYCARSANWHDTHLDYWGQGTLVTVSS VL: DIQMTQSPSSLSASVGDRVTITCRASQSILTYVNWYQQKPGKAPKLLIYAATSRASGVPSRFSGSGSGTDFTLTISSLQPEDFATYYCQQSYDTPLTFGGGTKVEIK
0.208 | 374_C03 (antibody, V domains shown) VH: EVQLLESGGGLVQPGGSLRLSCAASGFTFDSYSMNWVRQAPGKGLEWVSGINYNSGYTSYADSVKGRFTISRDNSKNTLYLQMNSLRAEDTAVYYCARSANWHDTALDYWGQGTLVTVSS VL: DIQMTQSPSSLSASVGDRVTITCRASQSILTYLNWYQQKPGKAPKLLIYAATSRASGVPSRFSGSGSGTDFTLTISSLQPEDFATYYCQQSYDSPLTFGGGTKVEIK
0.176 | 373_E05 (antibody, V domains shown) VH: EVQLLESGGGLVQPGGSLRLSCAASGFTFDSYGMNWVRQAPGKGLEWVSNINYNGGYTSYADSVKGRFTISRDNSKNTLYLQMNSLRAEDTAVYYCARSANWHDTALDYWGQGTLVTVSS VL: DIQMTQSPSSLSASVGDRVTITCRASQSILSYVNWYQQKPGKAPKLLIYAVTSRASGVPSRFSGSGSGTDFTLTISSLQPEDFATYYCQQSYDLPLTFGGGTKVEIK
0.294 | 373_E07 (antibody, V domains shown) VH: EVQLLESGGGLVQPGGSLRLSCAASGFTFSSYGMNWVRQAPGKGLEWVANINYNGGYTSYADSVKGRFTISRDNSKNTLYLQMNSLRAEDTAVYYCARSANWHDTALDYWGQGTLVTVSS VL: DIQMTQSPSSLSASVGDRVTITCRASQSILTYVNWYQQKPGKAPKLLIYAATSLASGVPSRFSGSGSGTDFTLTISSLQPEDFATYYCQQSYETPLTFGGGTKVEIK
0.174 | 373_G12 (antibody, V domains shown) VH: EVQLLESGGGLVQPGGSLRLSCAASGFTFSSYSMNWVRQAPGKGLEWVSNINYNGGYTSYADSVKGRFTISRDNSKNTLYLQMNSLRAEDTAVYYCARSANWHDTALDYWGQGTLVTVSS VL: DIQMTQSPSSLSASVGDRVTITCRASQSILSYLNWYQQKPGKAPKLLIYATTSLASGVPSRFSGSGSGTDFTLTISSLQPEDFATYYCQQSYNSPLTFGGGTKVEIK
